Drawing on publication PMC4899274, this text covers stoichiometry N for one substance.

This assay addresses triplex subunit VP23 (HSV-1) (human herpes simplex virus type 1 (HSV-1), strain KOS) (UniProt P10202). Description: cryo-EM structure.

For orientation: stoichiometry N means the number of molecules, sites or subunits per partner or assembly.

Take “triplex subunit VP23 (HSV-1) (from UniProt P10202 1-318) (natural protein)”: the stoichiometry N came to 2.
